Source: article PMC6053543 (Nature cell biology, 2016)

T1: recombinant FL-Kank2 (mouse, UniProt Q8BX02 1-843)
T1 sequence (looked up): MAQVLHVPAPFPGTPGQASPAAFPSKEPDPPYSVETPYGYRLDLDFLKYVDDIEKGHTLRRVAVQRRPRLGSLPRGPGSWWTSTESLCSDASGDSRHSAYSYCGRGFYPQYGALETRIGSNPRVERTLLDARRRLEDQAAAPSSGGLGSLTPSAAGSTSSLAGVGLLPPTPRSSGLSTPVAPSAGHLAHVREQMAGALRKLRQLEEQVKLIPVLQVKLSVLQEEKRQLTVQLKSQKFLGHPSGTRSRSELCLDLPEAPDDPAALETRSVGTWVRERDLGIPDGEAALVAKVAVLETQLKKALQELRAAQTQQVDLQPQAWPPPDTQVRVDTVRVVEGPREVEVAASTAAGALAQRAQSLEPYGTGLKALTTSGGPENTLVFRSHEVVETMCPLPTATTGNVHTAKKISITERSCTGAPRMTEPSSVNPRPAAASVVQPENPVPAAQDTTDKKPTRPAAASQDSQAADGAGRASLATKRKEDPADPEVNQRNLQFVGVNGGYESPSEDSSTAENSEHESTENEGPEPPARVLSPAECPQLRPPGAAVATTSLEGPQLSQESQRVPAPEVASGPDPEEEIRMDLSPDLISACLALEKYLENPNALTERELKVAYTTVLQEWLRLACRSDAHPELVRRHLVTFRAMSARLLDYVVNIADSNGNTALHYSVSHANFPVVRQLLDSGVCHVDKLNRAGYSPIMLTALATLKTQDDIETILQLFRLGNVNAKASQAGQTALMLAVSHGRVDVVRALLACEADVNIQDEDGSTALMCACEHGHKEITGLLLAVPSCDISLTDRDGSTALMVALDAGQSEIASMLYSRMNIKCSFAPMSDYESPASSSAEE

B1: Venus-His-Sumo-tagged talin R4–R8 domain (domain or fragment, mouse, UniProt P26039 913-1655, looked up)
chain: LVQRLEHAAKQAAASATQTIAAAQHAASAPKASAGPQPLLVQSCKAVAEQIPLLVQGVRGSQAQPDSPSAQLALIAASQSFLQPGGKMVAAAKASVPTIQDQASAMQLSQCAKNLGTALAELRTAAQKAQEACGPLEMDSALSVVQNLEKDLQEIKAAARDGKLKPLPGETMEKCTQDLGNSTKAVSSAIAKLLGEIAQGNENYAGIAARDVAGGLRSLAQAARGVAALTSDPAVQAIVLDTASDVLDKASSLIEEAKKASGHPGDPESQQRLAQVAKAVTQALNRCVSCLPGQRDVDNALRAVGDASKRLLSDSLPPSTGTFQEAQSRLNEAAAGLNQAATELVQASRGTPQDLARASGRFGQDFSTFLEAGVEMAGQAPSQEDRAQVVSNLKGISMSSSKLLLAAKALSTDPASPNLKSQLAAAARAVTDSINQLITMCTQQAPGQKECDNALRQLETVRELLENPVQPINDMSYFGCLDSVMENSKVLGEAMTGISQNAKNGNLPEFGDAIATASKALCGFTEAAAQAAYLVGVSDPNSQAGQQGLVEPTQFARANQAIQMACQSLGEPGCTQAQVLSAATIVAKHTSALCNSCRLASARTANPTAKRQFVQSAKEVANSTANLVKTIKALDGDFTEENRAQCRAATAPLLEAVDNLSAFASNPEFSSVPAQISPEGRAAMEPIVISAKTMLESAGGLIQTARALAVNPRDPPRWSVLAGHSRTVSDSIKKLITSMRDKA

Experiments:
[1] = molecular target: B1; assay: pull-down
recombinant FL-Kank2 = molecular target: T1, recombinant FL-Kank2; assay: pull-down

binding result [1] | binding result (recombinant FL-Kank2) | Binder
binds |  | DPPYSVETPYGYRLDLDFLKYVDDIEKGHTLRRVAVQRRPRLGS (domain or fragment, mouse, UniProt Q8BX02 29-72, looked up) [GST-tagged Kank2-KN (amino acids 29–72)]
 | binds | B1
